Experimental data: PMC9018054, “Biotechnological potential and initial characterization of two novel sesquiterpene synthases from Basidiomycota Coniophora puteana for heterologous production of δ-cadinol” (Microbial Cell Factories, 2022)

What was measured:
[1] = target: T1, Copu5 (Coniophora puteana, UniProt A0A5M3MX24); experiment: sesquiterpene production in E. coli, GC-MS and NMR of product; format: cell-based; settings: E. coli HMS174 (DE3) with DXS and IDI co-expression, endogenous FPP; product (+)-δ-cadinol
T1 construct: full-length, codon-optimized, N-terminal hexa-His tag (pET-M11) for thermal shift, expressed in E. coli BL21 RIL DE3; purified in pyrophosphate-containing buffer; pACYC-based operon in E. coli HMS174 (DE3) for terpene production

[2] = substrate: CC(C)=CCC/C(C)=C/CC/C(C)=C/CO[P@@](=O)(O)OP(=O)(O)O; experiment: purified protein; format: biochemical, Coniophora puteana; settings: 25 °C, FPP 0-70 µM in methanol, 0.8–1.2 µM enzyme
[3] = target: the molecule itself; experiment: SEC; HighLoad Superdex S200 16/60; 20 mM Tris/HCl pH 7.5, 150 mM NaCl, 5 mM MgCl2; calibrated with a high molecular weight standard

T1 sequence (A0A5M3MX24 entry or part of it): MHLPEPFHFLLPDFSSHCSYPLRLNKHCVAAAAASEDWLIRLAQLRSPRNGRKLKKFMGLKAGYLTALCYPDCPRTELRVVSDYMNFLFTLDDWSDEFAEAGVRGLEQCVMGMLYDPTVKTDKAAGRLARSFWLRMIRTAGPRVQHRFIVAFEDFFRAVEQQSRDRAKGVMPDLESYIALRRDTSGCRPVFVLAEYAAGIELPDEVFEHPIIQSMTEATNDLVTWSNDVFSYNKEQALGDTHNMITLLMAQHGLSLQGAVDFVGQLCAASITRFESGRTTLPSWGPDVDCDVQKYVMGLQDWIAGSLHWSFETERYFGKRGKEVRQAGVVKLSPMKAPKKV

Molecule	sesquiterpene production in E. coli, GC-MS and NMR of product [1]	Km [2]	kcat [2]	kcat/Km [2]	stoichiometry N [3]
CC(C)=CCC/C(C)=C/CC/C(C)=C/COP(=O)(O)OP(=O)(O)O [FPP]	catalyze the formation of (+)-δ-cadinol as main product from its direct precursor FPP				
Copu9 (Coniophora puteana RWD-64-598 SS2; N228A) (protein, full-length, codon-optimized, N-terminal hexa-His tag (pET-M11), expressed in E. coli BL21 RIL DE3; homodimer; 13 N-terminal residues not visible in crystal) MSPTATFTTTSSEENAPTKFILPDLVSDCTYPLLLNDNCEPVARASEQWLIAGARLQEPRRTKFMGLLAGELTAACYPHADASHLRVCVDFMNWLFNMDDWLDDFDVDDTWGMRHCCLGAFRDPVGFETDKLGGLMSKSFFSRFRQDGGPGCTERFIHTMDLFFIAVAQQAGDRANGITPDLESYITVRRDTSGCKPCFALIEYAAGIDLPDHVIYHPTLAAMEEATADLVTWSNDIFSYNKEQVTDDTHNMIPVLMRERGLDLQGAVDFVGRLCKGTIERFETERARLPSWGPELDAQVQTYIEGLQNWIVGSLHWSFDSHRYFGKDGHAVKKHRIVKLLPKRVPQQA		4.42 ± 0.59 µM	0.0262 ± 0.0007 s⁻¹	5940 M⁻¹ s⁻¹	
Copu9, (+)-δ-cadinol synthase from Coniophora puteana (enzyme, UniProt A0A5M3MXY8 1-349, looked up, Copu9, sesquiterpene synthase ((+)-δ-cadinol synthase) of Coniophora puteana, XP_007765560; codon-optimised open reading frame; the crystal structure is complete except for the 13 N-terminal residues; no removal of the tag is described; Crystallised with three Mg2+ ions and alendronate (AHD); also called Copu9 WT; Copu9·Mg3·AHD; source: E. coli BL21 RIL DE3, purified (Ni2+-NTA, size exclusion …)) MSPTATFTTTSSEENAPTKFILPDLVSDCTYPLLLNDNCEPVARASEQWLIAGARLQEPRRTKFMGLLAGELTAACYPHADASHLRVCVDFMNWLFNMDDWLDDFDVDDTWGMRHCCLGAFRDPVGFETDKLGGLMSKSFFSRFRQDGGPGCTERFIHTMDLFFIAVAQQAGDRANGITPDLESYITVRRDTSGCKPCFALIEYAAGIDLPDHVIYHPTLAAMEEATNDLVTWSNDIFSYNKEQVTDDTHNMIPVLMRERGLDLQGAVDFVGRLCKGTIERFETERARLPSWGPELDAQVQTYIEGLQNWIVGSLHWSFDSHRYFGKDGHAVKKHRIVKLLPKRVPQQA					2
Copu9 (Coniophora puteana RWD-64-598 SS2; G194A) (protein, full-length, codon-optimized, N-terminal hexa-His tag (pET-M11), expressed in E. coli BL21 RIL DE3; homodimer; 13 N-terminal residues not visible in crystal) MSPTATFTTTSSEENAPTKFILPDLVSDCTYPLLLNDNCEPVARASEQWLIAGARLQEPRRTKFMGLLAGELTAACYPHADASHLRVCVDFMNWLFNMDDWLDDFDVDDTWGMRHCCLGAFRDPVGFETDKLGGLMSKSFFSRFRQDGGPGCTERFIHTMDLFFIAVAQQAGDRANGITPDLESYITVRRDTSACKPCFALIEYAAGIDLPDHVIYHPTLAAMEEATNDLVTWSNDIFSYNKEQVTDDTHNMIPVLMRERGLDLQGAVDFVGRLCKGTIERFETERARLPSWGPELDAQVQTYIEGLQNWIVGSLHWSFDSHRYFGKDGHAVKKHRIVKLLPKRVPQQA		7.00 ± 0.37 µM	0.036 ± 0.0005 s⁻¹	5140 M⁻¹ s⁻¹	
Copu9 (Coniophora puteana RWD-64-598 SS2; C195V) (protein, full-length, codon-optimized, N-terminal hexa-His tag (pET-M11), expressed in E. coli BL21 RIL DE3; homodimer; 13 N-terminal residues not visible in crystal) MSPTATFTTTSSEENAPTKFILPDLVSDCTYPLLLNDNCEPVARASEQWLIAGARLQEPRRTKFMGLLAGELTAACYPHADASHLRVCVDFMNWLFNMDDWLDDFDVDDTWGMRHCCLGAFRDPVGFETDKLGGLMSKSFFSRFRQDGGPGCTERFIHTMDLFFIAVAQQAGDRANGITPDLESYITVRRDTSGVKPCFALIEYAAGIDLPDHVIYHPTLAAMEEATNDLVTWSNDIFSYNKEQVTDDTHNMIPVLMRERGLDLQGAVDFVGRLCKGTIERFETERARLPSWGPELDAQVQTYIEGLQNWIVGSLHWSFDSHRYFGKDGHAVKKHRIVKLLPKRVPQQA		8.48 ± 0.51 µM	0.0398 ± 0.0007 s⁻¹	4690 M⁻¹ s⁻¹	
Copu9 (Coniophora puteana RWD-64-598 SS2; T73C) (protein, full-length, codon-optimized, N-terminal hexa-His tag (pET-M11), expressed in E. coli BL21 RIL DE3; homodimer; 13 N-terminal residues not visible in crystal) MSPTATFTTTSSEENAPTKFILPDLVSDCTYPLLLNDNCEPVARASEQWLIAGARLQEPRRTKFMGLLAGELCAACYPHADASHLRVCVDFMNWLFNMDDWLDDFDVDDTWGMRHCCLGAFRDPVGFETDKLGGLMSKSFFSRFRQDGGPGCTERFIHTMDLFFIAVAQQAGDRANGITPDLESYITVRRDTSGCKPCFALIEYAAGIDLPDHVIYHPTLAAMEEATNDLVTWSNDIFSYNKEQVTDDTHNMIPVLMRERGLDLQGAVDFVGRLCKGTIERFETERARLPSWGPELDAQVQTYIEGLQNWIVGSLHWSFDSHRYFGKDGHAVKKHRIVKLLPKRVPQQA		6.28 ± 1.37 µM	0.0502 ± 0.0026 s⁻¹	8000 M⁻¹ s⁻¹	
Copu9 (Coniophora puteana RWD-64-598 SS2) (protein, full-length, codon-optimized, N-terminal hexa-His tag (pET-M11), expressed in E. coli BL21 RIL DE3; homodimer; 13 N-terminal residues not visible in crystal) MSPTATFTTTSSEENAPTKFILPDLVSDCTYPLLLNDNCEPVARASEQWLIAGARLQEPRRTKFMGLLAGELTAACYPHADASHLRVCVDFMNWLFNMDDWLDDFDVDDTWGMRHCCLGAFRDPVGFETDKLGGLMSKSFFSRFRQDGGPGCTERFIHTMDLFFIAVAQQAGDRANGITPDLESYITVRRDTSGCKPCFALIEYAAGIDLPDHVIYHPTLAAMEEATNDLVTWSNDIFSYNKEQVTDDTHNMIPVLMRERGLDLQGAVDFVGRLCKGTIERFETERARLPSWGPELDAQVQTYIEGLQNWIVGSLHWSFDSHRYFGKDGHAVKKHRIVKLLPKRVPQQA		4.59 ± 0.17 µM	0.0324 ± 0.0003 s⁻¹	7070 M⁻¹ s⁻¹	
Copu9 (Coniophora puteana RWD-64-598 SS2; S314N) (protein, full-length, codon-optimized, N-terminal hexa-His tag (pET-M11), expressed in E. coli BL21 RIL DE3; homodimer; 13 N-terminal residues not visible in crystal) MSPTATFTTTSSEENAPTKFILPDLVSDCTYPLLLNDNCEPVARASEQWLIAGARLQEPRRTKFMGLLAGELTAACYPHADASHLRVCVDFMNWLFNMDDWLDDFDVDDTWGMRHCCLGAFRDPVGFETDKLGGLMSKSFFSRFRQDGGPGCTERFIHTMDLFFIAVAQQAGDRANGITPDLESYITVRRDTSGCKPCFALIEYAAGIDLPDHVIYHPTLAAMEEATNDLVTWSNDIFSYNKEQVTDDTHNMIPVLMRERGLDLQGAVDFVGRLCKGTIERFETERARLPSWGPELDAQVQTYIEGLQNWIVGNLHWSFDSHRYFGKDGHAVKKHRIVKLLPKRVPQQA		5.10 ± 0.54 µM	0.0192 ± 0.0005 s⁻¹	3760 M⁻¹ s⁻¹	
Copu9 (Coniophora puteana RWD-64-598 SS2; P197C) (protein, full-length, codon-optimized, N-terminal hexa-His tag (pET-M11), expressed in E. coli BL21 RIL DE3; homodimer; 13 N-terminal residues not visible in crystal) MSPTATFTTTSSEENAPTKFILPDLVSDCTYPLLLNDNCEPVARASEQWLIAGARLQEPRRTKFMGLLAGELTAACYPHADASHLRVCVDFMNWLFNMDDWLDDFDVDDTWGMRHCCLGAFRDPVGFETDKLGGLMSKSFFSRFRQDGGPGCTERFIHTMDLFFIAVAQQAGDRANGITPDLESYITVRRDTSGCKCCFALIEYAAGIDLPDHVIYHPTLAAMEEATNDLVTWSNDIFSYNKEQVTDDTHNMIPVLMRERGLDLQGAVDFVGRLCKGTIERFETERARLPSWGPELDAQVQTYIEGLQNWIVGSLHWSFDSHRYFGKDGHAVKKHRIVKLLPKRVPQQA		6.82 ± 0.77 µM	0.0381 ± 0.001 s⁻¹	5580 M⁻¹ s⁻¹	
Copu9 (Coniophora puteana RWD-64-598 SS2; T192N) (protein, full-length, codon-optimized, N-terminal hexa-His tag (pET-M11), expressed in E. coli BL21 RIL DE3; homodimer; 13 N-terminal residues not visible in crystal) MSPTATFTTTSSEENAPTKFILPDLVSDCTYPLLLNDNCEPVARASEQWLIAGARLQEPRRTKFMGLLAGELTAACYPHADASHLRVCVDFMNWLFNMDDWLDDFDVDDTWGMRHCCLGAFRDPVGFETDKLGGLMSKSFFSRFRQDGGPGCTERFIHTMDLFFIAVAQQAGDRANGITPDLESYITVRRDNSGCKPCFALIEYAAGIDLPDHVIYHPTLAAMEEATNDLVTWSNDIFSYNKEQVTDDTHNMIPVLMRERGLDLQGAVDFVGRLCKGTIERFETERARLPSWGPELDAQVQTYIEGLQNWIVGSLHWSFDSHRYFGKDGHAVKKHRIVKLLPKRVPQQA		8.28 ± 0.60 µM	0.0396 ± 0.0008 s⁻¹	4780 M⁻¹ s⁻¹	
Copu9 (Coniophora puteana RWD-64-598 SS2; C76V) (protein, full-length, codon-optimized, N-terminal hexa-His tag (pET-M11), expressed in E. coli BL21 RIL DE3; homodimer; 13 N-terminal residues not visible in crystal) MSPTATFTTTSSEENAPTKFILPDLVSDCTYPLLLNDNCEPVARASEQWLIAGARLQEPRRTKFMGLLAGELTAAVYPHADASHLRVCVDFMNWLFNMDDWLDDFDVDDTWGMRHCCLGAFRDPVGFETDKLGGLMSKSFFSRFRQDGGPGCTERFIHTMDLFFIAVAQQAGDRANGITPDLESYITVRRDTSGCKPCFALIEYAAGIDLPDHVIYHPTLAAMEEATNDLVTWSNDIFSYNKEQVTDDTHNMIPVLMRERGLDLQGAVDFVGRLCKGTIERFETERARLPSWGPELDAQVQTYIEGLQNWIVGSLHWSFDSHRYFGKDGHAVKKHRIVKLLPKRVPQQA		3.14 ± 0.45 µM	0.0291 ± 0.0007 s⁻¹	9250 M⁻¹ s⁻¹	
